Tests used:
[1] = molecular target: T1, human VEGF (hVEGF) (human, UniProt P15692 181-395); experiment: SPR single-cycle
T1 construct: also called VEGF-A
T1 sequence: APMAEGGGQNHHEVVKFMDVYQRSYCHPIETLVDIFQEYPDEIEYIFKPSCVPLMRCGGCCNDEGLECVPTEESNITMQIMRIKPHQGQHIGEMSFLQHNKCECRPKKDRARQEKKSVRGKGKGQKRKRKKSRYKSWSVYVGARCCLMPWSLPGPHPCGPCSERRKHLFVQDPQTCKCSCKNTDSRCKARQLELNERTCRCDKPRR
Text: (§1) To determine the binding affinity of selected Fab variants, SPR measurement with a BIACORE® T200 instrument was used. Briefly, series S sensor chip CM5 was activated with 1-ethyl-3-(3-dimethylaminopropyl) carbodiimide (EDC) and N-hydroxysuccinimide (NHS) reagents according to the supplier's instructions, and human VEGF (hVEGF) was coupled to achieve 50-80 response units (RU), then following by blocking un-reacted groups with 1M ethanolamine.
(§2) Three-fold serial dilutions of Fab in HBS-P buffer (0.01 M HEPES pH 7.4, 0.15 M NaCl, 0.005% surfactant P20) from low (0.02 nM) to high (50 nM) were injected (flow rate: 30 μl/min). The binding responses on hVEGF were corrected by subtracting of RU from a blank flow cell. The sensorgram was recorded and subject to reference and buffer subtraction before evaluating by BIACORE® T200 Evaluation Software (version 2.0). Association rates (kₒₙ) and dissociation rates (koff) were calculated using a simple one-to-one Langmuir binding model. The equilibrium dissociation constant (Kd) was calculated as the ratio koff/kₒₙ.

[2] = molecular target: T1, human VEGF (hVEGF); experiment: SPR
Text: as §1, §2

[3] = molecular target: T1, human VEGF (hVEGF); experiment: SPR; remark: listed apart in the source
Text: as §1, §2

B1: G6.31 HC-Y58Q (Fab, name in Kabat numbering, V domains shown)
VH: EVQLVESGGGLVQPGGSLRLSCAASGFTISDYWIHWVRQAPGKGLEWVAGITPAGGYTQYADSVKGRFTISADTSKNTAYLQMNSLRAEDTAVYYCARFVFFLPYAMDYWGQGTLVTVSS
VL: DIQMTQSPSSLSASVGDRVTITCRASQDVSTAVAWYQQKPGKAPKLLIYSASFLYSGVPSRFSGSGSGTDFTLTISSLQPEDFATYYCQQGYGNPFTFGQGTKVEIK
notes: Fab
[1]
  Fold difference (relative to G6.31): 1.5 fold
  Kd: 1.02 nM
  koff: 0.000358 s⁻¹
  kon: 352000 M⁻¹ s⁻¹

B2: HCLC1 (Fab, V domains shown)
VH: EEQLVEEGGGLVQPGESLELSCAASGFEISDYWIHWVRQEPGEGLEWVAGITPAGGYEYYADSVEGRFTISADTSENTAYLQMNELRAEDTAVYYCARFVFFLPYAMDYWGQGELVTVSS
VL: DIQMTQSPESLSASVGDEVTITCRASQDVSTAVAWYQQKPGKAPKLLIYSASFLYSGVPSRFSGSGSGTDFTLTISSLQPEDAATYYCQQGYGAPFTFGQGTKVEIK
notes: Fab
[2]
  Kd: 0.442 nM
  koff: 0.000607 s⁻¹
  kon: 1.37e+06 M⁻¹ s⁻¹
[3]
  Kd: 0.442 nM
  koff: 0.000607 s⁻¹
  kon: 1.37e+06 M⁻¹ s⁻¹

B3: HCLC3 (Fab, V domains shown)
VH: EEQLVEEGGGLVQPGESLELSCAASGFEISDYWIHWVRQEPGEGLEWVAGITPAGGYEYYADSVEGRFTISADTSENTAYLQMNELRAEDTAVYYCARFVFFLPYAMDYWGQGELVTVSS
VL: DIQMTQSPESLSASVGDEVTITCRASQDVSTAVAWYQQKPGEAPKLLIYSASFLYSGVPSRFSGSGSGTDFTLTISSLQPEDAATYYCQQGYGAPFTFGQGTKVEIK
notes: Fab
[2]
  Kd: 0.33 nM
  koff: 0.000608 s⁻¹
  kon: 1.84e+06 M⁻¹ s⁻¹
[3]
  Kd: 0.33 nM
  koff: 0.000608 s⁻¹
  kon: 1.84e+06 M⁻¹ s⁻¹

B4: HCLC4 (Fab, V domains shown)
VH: EEQLVEEGGGLVQPGESLELSCAASGFEISDYWIHWVRQEPGEGLEWVAGITPAGGYEYYADSVEGRFTISADTSENTAYLQMNELRAEDTAVYYCARFVFFLPYAMDYWGQGELVTVSS
VL: DIQMTQSPSSLSASVGDEVTITCRASQDVSTAVAWYQQKPGKAPKLLIYSASFLYSGVPSRFSGSGSGTDFTLTISSLQPEDAATYYCQQGYGAPFTFGQGTKVEIK
notes: Fab
[2]
  Kd: 0.299 nM
  koff: 0.000608 s⁻¹
  kon: 2.03e+06 M⁻¹ s⁻¹
[3]
  Kd: 0.299 nM
  koff: 0.000608 s⁻¹
  kon: 2.03e+06 M⁻¹ s⁻¹

B5: R19HCLC2 (Fab, V domains shown)
VH: EEQLVEEGGGLVQPGESLRLSCAASGFEISDYWIHWVRQEPGEGLEWVAGITPAGGYEYYADSVEGRFTISADTSENTAYLQMNELRAEDTAVYYCARFVFFLPYAMDYWGQGELVTVSS
VL: DIQMTQSPSSLSASVGDEVTITCRASQDVSTAVAWYQQKPGEAPKLLIYSASFLYSGVPSRFSGSGSGTDFTLTIESLQPEDAATYYCQQGYGAPFTFGQGTKVEIK
notes: Fab
[2]
  koff: 4.67e-05 s⁻¹
  kon: 889000 M⁻¹ s⁻¹
[3]
  koff: 4.67e-05 s⁻¹
  kon: 889000 M⁻¹ s⁻¹

B6: HCLC5 (Fab, V domains shown)
VH: EEQLVEEGGGLVQPGESLELSCAASGFEISDYWIHWVRQEPGEGLEWVAGITPAGGYEYYADSVEGRFTISADTSENTAYLQMNELRAEDTAVYYCARFVFFLPYAMDYWGQGELVTVSS
VL: DIQMTQSPSSLSASVGDRVTITCRASQDVSTAVAWYQQKPGKAPKLLIYSASFLYSGVPSRFSGSGSGTDFTLTISSLQPEDAATYYCQQGYGAPFTFGQGTKVEIK
notes: Fab
[2]
  Kd: 0.316 nM
  koff: 0.000573 s⁻¹
  kon: 1.81e+06 M⁻¹ s⁻¹
[3]
  Kd: 0.316 nM
  koff: 0.000573 s⁻¹
  kon: 1.81e+06 M⁻¹ s⁻¹

B7: HCLC2 (Fab, V domains shown)
VH: EEQLVEEGGGLVQPGESLELSCAASGFEISDYWIHWVRQEPGEGLEWVAGITPAGGYEYYADSVEGRFTISADTSENTAYLQMNELRAEDTAVYYCARFVFFLPYAMDYWGQGELVTVSS
VL: DIQMTQSPSSLSASVGDEVTITCRASQDVSTAVAWYQQKPGEAPKLLIYSASFLYSGVPSRFSGSGSGTDFTLTIESLQPEDAATYYCQQGYGAPFTFGQGTKVEIK
notes: Fab
[2]
  Kd: 0.293 nM
  koff: 0.000623 s⁻¹
  kon: 2.12e+06 M⁻¹ s⁻¹
[3]
  Kd: 0.293 nM
  koff: 0.000623 s⁻¹
  kon: 2.12e+06 M⁻¹ s⁻¹

B8: LCcombo3 (G6.31 WT VH with LCcombo3 VL) (Fab, V domains shown)
VH: EVQLVESGGGLVQPGGSLRLSCAASGFTISDYWIHWVRQAPGKGLEWVAGITPAGGYTYYADSVKGRFTISADTSKNTAYLQMNSLRAEDTAVYYCARFVFFLPYAMDYWGQGTLVTVSS
VL: DIQMTQSPESLSASVGDEVTITCRASQDVSTAVAWYQQKPGEAPKLLIYSASFLYSGVPSRFSGSGSGTDFTLTISSLQPEDAATYYCQQGYGAPFTFGQGTKVEIK
notes: Fab
[3]
  Kd: 1.34 nM
  koff: 0.000768 s⁻¹
  kon: 574000 M⁻¹ s⁻¹

B9: G6.31 LC-Q37A (Fab, V domains shown)
VH: EVQLVESGGGLVQPGGSLRLSCAASGFTISDYWIHWVRQAPGKGLEWVAGITPAGGYTYYADSVKGRFTISADTSKNTAYLQMNSLRAEDTAVYYCARFVFFLPYAMDYWGQGTLVTVSS
VL: DIQMTQSPSSLSASVGDRVTITCRASQDVSTAVAWYAQKPGKAPKLLIYSASFLYSGVPSRFSGSGSGTDFTLTISSLQPEDFATYYCQQGYGNPFTFGQGTKVEIK
notes: Fab
[1]
  Fold difference (relative to G6.31): 1.8 fold
  Kd: 0.85 nM
  koff: 0.000515 s⁻¹
  kon: 603000 M⁻¹ s⁻¹

B10: G6.31 LC-T97N (Fab, V domains shown)
VH: EVQLVESGGGLVQPGGSLRLSCAASGFTISDYWIHWVRQAPGKGLEWVAGITPAGGYTYYADSVKGRFTISADTSKNTAYLQMNSLRAEDTAVYYCARFVFFLPYAMDYWGQGTLVTVSS
VL: DIQMTQSPSSLSASVGDRVTITCRASQDVSTAVAWYQQKPGKAPKLLIYSASFLYSGVPSRFSGSGSGTDFTLTISSLQPEDFATYYCQQGYGNPFNFGQGTKVEIK
notes: Fab
[1]
  Fold difference (relative to G6.31): 0.8 fold
  Kd: 1.86 nM
  koff: 0.000802 s⁻¹
  kon: 432000 M⁻¹ s⁻¹

B11: G6.31 LC-Q89N (Fab, V domains shown)
VH: EVQLVESGGGLVQPGGSLRLSCAASGFTISDYWIHWVRQAPGKGLEWVAGITPAGGYTYYADSVKGRFTISADTSKNTAYLQMNSLRAEDTAVYYCARFVFFLPYAMDYWGQGTLVTVSS
VL: DIQMTQSPSSLSASVGDRVTITCRASQDVSTAVAWYQQKPGKAPKLLIYSASFLYSGVPSRFSGSGSGTDFTLTISSLQPEDFATYYCNQGYGNPFTFGQGTKVEIK
notes: Fab
[1]
  Fold difference (relative to G6.31): 3.5 fold
  Kd: 0.44 nM
  koff: 0.000435 s⁻¹
  kon: 991000 M⁻¹ s⁻¹

B12: HCcombo (Fab, V domains shown)
VH: EEQLVEEGGGLVQPGESLELSCAASGFEISDYWIHWVRQEPGEGLEWVAGITPAGGYEYYADSVEGRFTISADTSENTAYLQMNELRAEDTAVYYCARFVFFLPYAMDYWGQGELVTVSS
VL: DIQMTQSPSSLSASVGDRVTITCRASQDVSTAVAWYQQKPGKAPKLLIYSASFLYSGVPSRFSGSGSGTDFTLTISSLQPEDFATYYCQQGYGNPFTFGQGTKVEIK
notes: Fab
[2]
  Kd: 0.134 nM
  koff: 0.000274 s⁻¹
  kon: 2.05e+06 M⁻¹ s⁻¹
[3]
  Kd: 0.134 nM
  koff: 0.000274 s⁻¹
  kon: 2.05e+06 M⁻¹ s⁻¹

B13: G6.31 HC-Y59T (Fab, name in Kabat numbering, V domains shown)
VH: EVQLVESGGGLVQPGGSLRLSCAASGFTISDYWIHWVRQAPGKGLEWVAGITPAGGYTYTADSVKGRFTISADTSKNTAYLQMNSLRAEDTAVYYCARFVFFLPYAMDYWGQGTLVTVSS
VL: DIQMTQSPSSLSASVGDRVTITCRASQDVSTAVAWYQQKPGKAPKLLIYSASFLYSGVPSRFSGSGSGTDFTLTISSLQPEDFATYYCQQGYGNPFTFGQGTKVEIK
notes: Fab
[1]
  Fold difference (relative to G6.31): 0.6 fold
  Kd: 2.71 nM
  koff: 0.000974 s⁻¹
  kon: 360000 M⁻¹ s⁻¹

B14: LCcombo4 (G6.31 WT VH with LCcombo4 VL) (Fab, V domains shown)
VH: EVQLVESGGGLVQPGGSLRLSCAASGFTISDYWIHWVRQAPGKGLEWVAGITPAGGYTYYADSVKGRFTISADTSKNTAYLQMNSLRAEDTAVYYCARFVFFLPYAMDYWGQGTLVTVSS
VL: DIQMTQSPSSLSASVGDEVTITCRASQDVSTAVAWYQQKPGKAPKLLIYSASFLYSGVPSRFSGSGSGTDFTLTISSLQPEDAATYYCQQGYGAPFTFGQGTKVEIK
notes: Fab
[3]
  Kd: 1.75 nM
  koff: 0.000808 s⁻¹
  kon: 463000 M⁻¹ s⁻¹

B15: LCcombo2 (G6.31 WT VH with LCcombo2 VL) (Fab, V domains shown)
VH: EVQLVESGGGLVQPGGSLRLSCAASGFTISDYWIHWVRQAPGKGLEWVAGITPAGGYTYYADSVKGRFTISADTSKNTAYLQMNSLRAEDTAVYYCARFVFFLPYAMDYWGQGTLVTVSS
VL: DIQMTQSPSSLSASVGDEVTITCRASQDVSTAVAWYQQKPGEAPKLLIYSASFLYSGVPSRFSGSGSGTDFTLTIESLQPEDAATYYCQQGYGAPFTFGQGTKVEIK
notes: Fab
[3]
  Kd: 1.11 nM
  koff: 0.000667 s⁻¹
  kon: 599000 M⁻¹ s⁻¹

B16: LCcombo1 (G6.31 WT VH with LCcombo1 VL) (Fab, V domains shown)
VH: EVQLVESGGGLVQPGGSLRLSCAASGFTISDYWIHWVRQAPGKGLEWVAGITPAGGYTYYADSVKGRFTISADTSKNTAYLQMNSLRAEDTAVYYCARFVFFLPYAMDYWGQGTLVTVSS
VL: DIQMTQSPESLSASVGDEVTITCRASQDVSTAVAWYQQKPGKAPKLLIYSASFLYSGVPSRFSGSGSGTDFTLTISSLQPEDAATYYCQQGYGAPFTFGQGTKVEIK
notes: Fab
[3]
  Kd: 2.27 nM
  koff: 0.00101 s⁻¹
  kon: 447000 M⁻¹ s⁻¹

Source: patent publication US20210115124A1 (Genentech, published 2021)
